Earlier results on one substance are cited in article PMC6518430.

The target of one data set is IL-12Rβ1 (Homo sapiens) (UniProt P42701).
The next data set concerns the target IL-23R (Homo sapiens) (UniProt Q5VWK5).

Sequence of IL-23 (Q9NPF7 20-189): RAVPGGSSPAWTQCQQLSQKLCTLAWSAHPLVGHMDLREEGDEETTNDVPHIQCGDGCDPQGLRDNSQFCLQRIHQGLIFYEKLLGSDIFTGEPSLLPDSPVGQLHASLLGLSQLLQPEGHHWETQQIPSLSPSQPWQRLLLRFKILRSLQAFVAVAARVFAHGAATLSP
Sequence of IL-23 (P29460 23-328, further chain): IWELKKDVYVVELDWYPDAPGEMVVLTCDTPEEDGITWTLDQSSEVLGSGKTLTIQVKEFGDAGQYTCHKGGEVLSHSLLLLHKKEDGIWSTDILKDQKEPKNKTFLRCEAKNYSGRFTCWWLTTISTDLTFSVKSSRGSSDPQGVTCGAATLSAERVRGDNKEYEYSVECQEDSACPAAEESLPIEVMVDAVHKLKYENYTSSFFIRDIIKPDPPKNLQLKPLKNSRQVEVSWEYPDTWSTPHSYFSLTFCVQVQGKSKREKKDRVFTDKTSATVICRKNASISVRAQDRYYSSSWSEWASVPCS
Sequence of IL-23R (Homo sapiens) (Q5VWK5 24-355): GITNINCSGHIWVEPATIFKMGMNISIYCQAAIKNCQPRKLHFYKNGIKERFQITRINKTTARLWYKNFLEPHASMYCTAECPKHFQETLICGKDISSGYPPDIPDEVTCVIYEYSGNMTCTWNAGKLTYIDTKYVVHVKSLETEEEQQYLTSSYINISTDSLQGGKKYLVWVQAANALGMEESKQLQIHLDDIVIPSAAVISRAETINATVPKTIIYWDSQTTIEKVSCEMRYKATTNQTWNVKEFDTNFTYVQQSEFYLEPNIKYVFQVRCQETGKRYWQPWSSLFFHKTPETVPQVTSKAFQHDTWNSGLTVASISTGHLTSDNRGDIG

In the case of IL-23 (from UniProt Q9NPF7), the Kd (in general, a measure of binding affinity in units of concentration) is 2 µM in the data set with IL-12Rβ1 (Homo sapiens) and 0.044 µM with IL-23R (Homo sapiens).
